The record followed here is article PMC7504102.

The assay concerns the target unfused negative control SGFP2. Kind of assay: pull-down; SGFP2-fused proteins held on protein G magnetic beads via anti-GFP pAb; incubated with Nluc-ALG-2 (300 ng/mL) in buffer HKM, 0.2% Nonidet P-40, 0.1% gelatin, 100 μM CaCl2, 2 h, 4 °C; bound luciferase activity relative to Sec31A-p (100%).

Chain of nanoluciferase (NanoLuc, Nluc)-fused ALG-2 (O75340 whole entry, the tested form may be a part): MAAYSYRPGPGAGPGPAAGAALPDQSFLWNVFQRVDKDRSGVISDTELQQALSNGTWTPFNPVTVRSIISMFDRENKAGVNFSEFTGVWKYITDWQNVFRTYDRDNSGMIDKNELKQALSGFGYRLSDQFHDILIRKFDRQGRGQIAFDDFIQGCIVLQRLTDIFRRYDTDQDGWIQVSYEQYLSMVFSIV

Substance “nanoluciferase (NanoLuc, Nluc)-fused ALG-2 (from UniProt O75340 1-191) (natural protein)” had a binding activity relative to Sec31A-p (100%) of 0.18%.
